The target in experiment [1] is T1, ET140-p25 (human).
T1 sequence (peptide, N-terminal biotin): SGSGLRCSSNTPPLTCQRY
Kind of experiment: peptide ELISA on streptavidin plate, antibody 1 ug/mL. (In an ELISA, binding on a coated surface is turned into a signal by an enzyme label.)

Experiment [2] addresses T2, ET140-p26 (human).
T2 sequence (peptide, N-terminal biotin): SGSGRCSSNTPPLTCQRYC
Described as above.

With 901mIgG (antibody), the results for the A450 in experiment [1] and in experiment [2] were 0.492 and 0.162, respectively.

Values taken from patent US20210346432A1.
